# The DeepSol protein solubility set
# Experiment: soluble on expression in E. coli; label from the status in PepcDB or PDB records
row,Sequence,soluble on expression in E. coli
1,MKSRRAFITDAGGDHGSMNTQATPSPQFYLTAPATCPYLPNQMERKVFTHLVGPRAPEMNDLLTQGGFRRSQNIAYRPACETCRACVSVRILTEQFQPTKSMRRVLAANSDVVATVHAAEPSTEQFALFRRYLDHRHQSGGMSDMSALDYAIMVEDTHVNTRIIEYRVREPGSGIDSSKRGELLAVALSDVMSDGLSMVYSFFNPELEKRSLGTFMIIDHITRTRALGLPHVYLGYWVDGSEKMGYKTRYHPQEHLTPRGWEIYSPKEELEHHHHHH,not soluble
2,PIFEEQPINTIYPEESLEGKVSLNCRARASPFPVYKWRMNNGDVDLTSDRYSMVGGNLVINNPDKQKDAGIYYCLASNNYGMVRSTEATLSFGYLDPFPPEERPEVRVKEGKGMVLLCDPPYHFPDDLSYRWLLNEFPVFITMDKRRFVSQTNGNLYIANVEASDKGNYSCFVSSPSITKSVFSKFIPLIPIPERTTKPYPADIVVQFKDVYALMGQNVTLECFALGNPVPDIRWRKVLEPMPSTAEISTSGAVLKIFNIQLEDEGIYECEAENIRGKDKHQARIYVQAFPEWVEHINDTEVDIGSDLYWPCVATGKPIPTIRWLKNGYAYHKGELRLYDVTFENAGMYQCIAENTYGAIYANAELKILALAPTFEMNPMKKKILAAKGGRVIIECKPKAAPKPKFSWSKGTEWLVNSSRILIWEDGSLEINNITRNDGGIYTCFAENNRGKANSTGTLVITDPTRIILAPINADITVGENATMQCAASFDPALDLTFVWSFNGYVIDFNKENIHYQRNFMLDSNGELLIRNAQLKHAGRYTCTAQTIVDNSSASADLVVRGPPGPPGGLRIEDIRATSVALTWSRGSDNHSPISKYTIQTKTILSDDWKDAKTDPPIIEGNMEAARAVDLIPWMEYEFRVVATNTLGRGEPSIPSNRIKTDGAAPNVAPSDVGGGGGRNRELTITWAPLSREYHYGNNFGYIVAFKPFDGEEWKKVTVTNPDTGRYVHKDETMSPSTAFQVKVKAFNNKGDGPYSLVAVINSAQDAPSEAPTEVGVKVLSSSEISVHWEHVLEKIVESYQIRYWAAHDKEEAANRVQVTSQEYSARLENLLPDTQYFIEVGACNSAGCGPPSDMIEAFTKKAPPSQPPRIISSVRSGSRYIITWDHVVALSNESTVTGYKVLYRPDGQHDGKLYSTHKHSIEVPIPRDGEYVVEVRAHSDGGDGVVSQVKISGAPTLSPSLLGLLLPAFGILVYLEF,soluble
3,MSLTEATVERIRLFLIESPIKMARLQGVGNVKGTVKRVLIELTSSDGVIGWGEAAPWEVFTGTPEAAFSALDIYLRPIALGKPVRRIRALMAELDRALVGHAEAKVAIEMALLDIVGKSSGLSVADLLGGRVRDTIPLSFSIADPDFPADLERMRKMVPDGNVIYKVKTGVKPHREDLDHLEAIRKEFGDKVDLRVDYNQALAPFGAIKILRDVEEFAPTFIEQPVPRKYLDVMAQLTAALETPVLADESCFDRRDMMEVVRREAADAVSIKLMKAGGLFEAQAIMAIADIAGLPGYGGTLWEGGIGLAAGTQLIAATPGISLGCEFYMPHHVLTEDVLEERVANRAGHVVVPDGPGLGIRVSEASVRANAQVLAEGHHHHHH,not soluble
4,MDIVDEKWEEYLKNLDEMSKSALLETFNIGASHAATALSEMTGKEVNISVPDLKIIAIKNVPEVVGEDVKVAVYIELGKDFSSHAFFIADYEDALRMFDIIMGNPLGTTKEMDEMVKSSFMEVGNILISAFANALSEFLGITIEQTPPSLAIDFLPAILDFALADIGKYCDYTIILQTNIKISDVKFEEHFLLFPKPEDMKKILEKLLGGFA,soluble
5,MSLTITENPYRLSLDIEGIGFQTADAIATSLGVAKNSLMRAEAGISHVLGELSQNGHCAVPEETLIDEASRLLQIDHPLVVEAVKNEKLTRRIVGETIDGVPCIFLESLHRAETGVASGLHRLMRGPLPWNALDPHDALPWIEETTALELSPSQRSAVTLVLASKVSIITGGPGVGKTTILKAILSVLQREKVSVALCAPTGRAAKRLTESTGIEAKTIHRLLEFDPQAFDFKRGRGNPLDASFVVVDETSMVDVVLMQKLVAAIPDHAAVVFVGDVDQLPSVGPGAVLADMISSEAIPTVRLTEIFRQAAESMIVVNAHRINQGDMPLTEGHHHHHH,soluble
6,MNMVGHSYGNIAIVYYMLQHGSDTSLPKLVKQVDIAGHFNGIIGMDEPEENSLDGEGKPTSMTGSYEELLSLGDNYPQGQVEVLNIYGNTGKESDERVTNLSSQSLAYLLKGHVKSYQEKKITGLNGQHSKLHETTLVDKPLNAFLWGK,not soluble
7,MSPIVSVPDITAPVENVPAILPKVVPGELIVNKPTGGDSDELFQYLVDILASPVYDVAIESPLELAEKLSDRLGVNFYIKREDKQRVFSFKLRGAYNMMSNLSREELDKGVITASAGNHAQGVALAGQRLNCVAKIVMPTTTPQIKIDAVRALGGDVVLYGKTFDEAQTHALELSEKDGLKYIPPFDDPGVIKGQGTIGTEINRQLKDIHAVFIPVGGGGLIAGVATFFKQIAPNTKIIGVEPYGAASMTLSLHEGHRVKLSNVDTFADGVAVALVGEYTFAKCQELIDGMVLVANDGISAAIKDVYDEGRNILETSGAVAIAGAAAYCEFYKIKNENIVAIASGANMDFSKLHKVTELAGLGSGK,soluble
8,GMHFSKEHINALETRTRAHFINSLSGFKSANLIGTQDRQGNTNLSIVSSVIHLGANPPLMGMIIRPHSVPRHTFENIMQTGLYTINHVNQSIYEQAHQTSARYDKDESEFEATGLTPEYLSDFCAPFVKESRLKYSVKLVEHQHLAINGTEFVIGEIVDVYVDDNAVQTDGFIDLQAIDTVAISGLDCYYTGDKLARLPYAKK,soluble
9,MVAAPPAVGAAMPSLDFDTSVFNKEKVSLAGHEEYIVRGGRNLFPLLPEAFKGIKQIGVIGWGSQGPAQAQNLRDSLAEAKSDIVVKIGLRKGSKSFDEARAAGFTEESGTLGDIWETVSGSDLVLLLISDAAQADNYEKIFSHMKPNSILGLSHGFLLGHLQSAGLDFPKNISVIAVCPKGMGPSVRRLYVQGKEINGAGINSSFAVHQDVDGRATDVALGWSVALGSPFTFATTLEQEYKSDIFGERGILLGAVHGIVEALFRRYTEQGMDEEMAYKNTVEGITGIISKTISKKGMLEVYNSLTEEGKKEFNKAYSASFYPCMDILYECYEDVASGSEIRSVVLAGRRFYEKEGLPAFPMGNIDQTRMWKVGEKVRSTRPENDLGPLHPFTAGVYVALMMAQIEVLRKKGHSYSEIINESVIESVDSLNPFMHARGVAFMVDNCSTTARLGSRKWAPRFDYILTQQAFVTVDKDAPINQDLISNFMSDPVHGAIEVCAELRPTVDISVPANADFVRPELRQSS,soluble
10,LSQEETELELLRQFDLAWQYGPCTGITRLQRWHRAEQMGLKPPVEVYQVLKTHPEDSRFQCSLWHLYPL,not soluble
11,MLGVLKKVFDPNKRQLARLEKIADQVDALGPEMARLSDEQLRQKTEEFKARYQQGESLDDLLVEAFAVVREGAKRVLGLYPYKVQIMGGVVLHEGDIAEMKTGEGKTLTATMPVYLNALTGRGVHVVTVNEYLATRDATEMGKLYEFLGMTVGLNLSGMSREEKQAAYNADITYGTNNEFGFDYLRDNMVLYKEHIVQRPLYYAIIDEVDSILIDEARTPLIISGTAQKSTKLYVQANAFVRTLRKDVDYTYDEKTKSVQLTEEGINKAERAFGIDNLFDLKHVTLNHHIQLALRAHVTMQRDVDYVVQDGKVIIVDPFTGRLMHGRRYSDGLHQAIEAKEGLEIQNESMTLATITFQNYFRMYEKLAGMTGTAKTEEEEFRNIYNMRVVVIPTNRPVIREDRPDLIYRTMEGKFRAVVEDIAARHAKGQPVLVGTVAIETSEMLSEMLKKRGIPHNVLNAKNHAKEAEIIAQAGQKGAVTIATNMAGRGTDIKLGEGVKELGGLAVIGTERHESRRIDNQLRGRSGRQGDPGVSQFYLSLEDELMRRFGSESLMAMMDRLGMDDSQPIQSKMVTKAVESAQKRVEGNNFDARKQLLQYDDVLREQREIIYRQRYEVLDSDNLRGIIEKMIQSVIERVVNAHTPKEEVPEEWNLKGLVEYLNAHLLPEGDVTEADLRGKEPEEMIELIWAKVKARYDEKEAQIPPEQMREFERVVVLRAVDMKWMNHIDAMEQLRQGIHLRAYGQVDPLREYQMEGYAMFEEMIAAIEEEVATYIMKAEIHHNLERQEVAKGEAVHPKEDGEEPKRKPVRKAVRVGRNDPCPCGSGKKYKHCCGRTV,not soluble
12,MIRSTVLILASFALAVNCYECMNNTVVINAPSDISKPVFYPDGWDGQSSTPQISENQQCVMTINVPTGYYATVTFYKHFTEPGGYLYFPSRKIELLQNDDYNPYIFPSPMVKINIGTDNRNDVMNQFGFKVVYSKYPTLEKNIINIDLGSPPVAAKPSEKLTTFVGDRNSMMSLMGFTMADNSKNYLLRQTAIFGGDSTDSTYIGSLSQILNSQQILTTYGNKISVYTFGLDKLIDYPLFMGQNQVDTMGLLKYNGANCPSTGNCNVTLNGNWGAHVVVVTSYDGPETIKSFDSFPDTGVLNVYENNVSNTTCIATLNKFNYLQQLPLQVNGNMKFYELRAGGVYNMVVTRDTSRASRHQI,not soluble
13,MSLCAAHAARPLALVMRLGYETAMSQIESLFVTRLYRARLSEHGPAIDPEEMEASCYSIAEDDEAGQEWCEENGYPGYTSYASLTDLPWRFPIFADLVTSLDAHVAAFAADLEFDLDGRKLVLEDLWINILPQGGMHSSHLHPHSVISGTTYVAMPEGASALKLEDPRSGRMMAAPTRTKTARRELQPFIYMKPDVGDVLLWESWLRHEVPMNMSEEERISVSFNYRWDEGHHHHHH,soluble
14,MDFECQFVCELKELAPVPALLIRTQTTMSELGSLFEAGYHDILQLLAGQGKSPSGPPFARYFGMSAGTFEVEFGFPVEGGVEGSGRVVTGLTPSGKAASSLYIGPYGEIEAVYDALMKWVDDNGFDLSGEAYEIYLDNPLEHHHHHH,not soluble
15,MKLTDRWFTSISEDEKGNIVFVNGRLELDEFRLSGKLKIRIEIRWPYEADEQGLPTESAGKRIEEIELLIRKAMEKDKLAIMTGNYTGGGTKYWVYYARTERVFGERLNEVLAPYETLPLEIECEVDTDWEEYLDMLSMKDENSI,not soluble
16,MSLILKEGEVVFEVPDKLTVTKKDEVFYNPRMKTCRDISIAVIQAFLNLYHKRDKFYIADALAGSGIRGLRYAKELEFNGELKVFLNDINPKAYEKIINNAKLNEIENIDVFNEDANTFLSKHFRFFNVVDIDPFGSPAPYVEQAIRALVTRNGLLCLTATDTAALCGRSKKSCLRKYLAYPLFGRDCHEFALRVLVGYVMRMATKYELALKPVFCHATDHYVRVYLVTDRGAKRADKVFEMLGYVKDVNGIKIIKKFEEGYEKGFAGPLYIGNLYDKALVEEALKIAEKREFSERVLKILNAIKGESAINQVGCYDTHQIGKMLKISVPPMQDIINKLKEMGFNAVVTHYNPKGIKTDATLKNVIEAIYQCTKIREGHHHHHH,soluble
17,MSLSDPIKITFSVEGLSHPFLVKQKQLAEETGKRLGAQVNVISANDDVNQQFNDIQTAIAQGTDALMMMPATTQGLDAVLKQAEAAQIPYFFSQKGMLGVEPASQVLAPYSNEGQQLGEWVVEHYKGQEDVKVAIISGIPGDQSSDARVNSFLLPLLRSCNFNVVANQPGNYRRGDSEKAAQNMLAANPDIDLLFGANDEAALGGIAALKSSGRQGVDVVGLDGQTDMFAAIQSGQALATVIHKPTAGIVVEEAVDYLRGKPVPEYRVLDEDLVTKETIETGAQPAEGHHHHHH,soluble
18,MGSDKIHHHHHHMALPEFKIAQLRHFVWVAELKGFHTAAEKACRTQPAISLSIRDLENKLSTILFEKRNAKTSNTELTPFGQYFLPKAKELIAHHDNVAQDMALMSEHKTGHLRLASVPSIACRMLPELLSKFIADVPELHISFYDDNSEAVLRKVEKQQVDIGIASLPHGHEHADITFTPIWEDQLGVVCREDHPFAEMTELHWKELRKQRLIRNGTSRLLEDTEAEPLLSDSQFLISNMLSLIAMLEEGLGITTLPWFAFPKNNSKLRFIPLTTPKIVRHIGIVQLKNKSLSPAAEALANFILKNTNQKKTSDLNPE,not soluble
